Columns and labels:
[1] = system: EGFR, HER2, HER3, HER4, PI3K, mTOR and MAPK pathways in HBECp53-CD74-NRG1 cells; test: Western blotting of protein phosphorylation; type: cell-based, human; conditions: serum-starved, 1 hour
Experimental: (§1) Whole-cell extracts were prepared after all treatments and subjected to SDS-PAGE, followed by immunoblotting for the phosphorylated (p) or total (t) proteins shown in each panel. All Western blotting studies were conducted at least two times and representative immunoblots of phosphorylated (p) and total (t) proteins are shown.
(§2) These events likely culminate in inhibition of growth and impaired survival.

[2] = system: EGFR, HER2, HER3, HER4, PI3K, mTOR and MAPK pathways in LUAD-0061AS3 cells; test: Western blotting of protein phosphorylation; type: cell-based, human; conditions: serum-starved, 1 hour
Experimental: as §1, §2

[3] = system: HER2, HER3, EGFR and downstream effectors in HCC-95 cells; test: Western blotting of protein phosphorylation; type: cell-based, human
Excerpt: as §2

[4] = system: HER2, HER3, AKT, ERK1/2 phosphorylation and BIM in LUAD-0061AS3 PDX tumors; test: Western blotting of PDX tumor lysates after single administration; type: in vivo, mice
Experimental: Characterization of the […] PDX model. H&E staining, TTF-1, and phospho-HER3 IHC (FIG. 5A, left to right). […] (FIG. 5B). Tumor volumes were measured twice weekly and plotted overtime. Results represent the mean±SEM. […] Western blotting was performed twice for each protein and representative immunoblots of phosphorylated (p) and total (t) proteins are shown (FIG. 5C).
Crushed PDX tumor samples were mixed with Matrigel (50%) and injected into the subcutaneous flank of 6-week-old female NSG (LUAD-0061AS3) or Balb/c nude (OV-10-0050) mice. When tumors reached approximately 100-150 mm3, mice were randomly assigned to groups of 5-8 and treatment was commenced. There were 2 mice per group with bilateral flank tumors for the protein phosphorylation/expression study in the LUAD-0061AS3 PDX model. Drugs were administered once, and then tumors were collected at 2, 24, and 168 hours posttreatment. Afatinib was administered by oral gavage once daily as a suspension (in 0.5% methylcellulose-0.4% Tween-80) on a 5-days-on and 2-days-off schedule. […] Mice were observed daily throughout the treatment period for signs of morbidity and mortality. Tumor length and width and animal weights were measured twice weekly. Tumor volume was calculated using the empirical formula V=length×width 2×0.52. The percentage change in tumor volume of each tumor was calculated using the formula [(V2−V1)/V1)]×100, where V1 is the starting tumor volume and V2 is the final tumor volume.
Protein phosphorylation was then detected by Western blotting of PDX tumor lysates.

[5] = system: CTG-0943 PDX tumors; test: Pancreatic adenocarcinoma PDX model (APP-NRG1); type: in vivo, mice
Experimental: Mice bearing CTG-0943 PDX tumors (5-8 mice per group) were treated with indicated agents (FIG. 8A). Representative H&E-stained slides of a vehicle-treated tumor (FIG. 8B). Tumor volume, results represent the mean±SEM. […] Change in the volume of individual tumors (vehicle: day 20; treated groups: day 31) compared with day 0(%) (FIG. 8D). Western blot analysis of vehicle, and afatinib and seribantumab-treated tumors. Tumor residues extracted day 24 for vehicle-, day 31 for seribantumab-, and day 32 for afatinib-treated groups. Antibody reactivity with human (H) and/or mouse (M) proteins is indicated.
Models of isogenic pancreatic cancer cells with NRG1 fusions by lentiviral-mediated cDNA expression of ATP1B1-NRG1 and SLC3A2-NRG1 fusions in immortalized human pancreatic ductal cells (H6c7) were developed. […] Western blotting analysis was used to evaluate protein phosphorylation and expression. The presence of NRG1 fusions was confirmed by reverse transcription polymerase chain reaction (RT-PCR) and next-generation sequencing (NGS).
There was no regression of afatinib-treated pancreatic PDX tumors. […] This was confirmed using a human-specific GAPH antibody.

[6] = in vivo
Excerpt: Patients are monitored during weekly dosing for a period of 28 days (i.e., throughout C1W1, C1W2, C1W3, and C1W4) for the occurrence of DLTs. […] The grading of AEs is based on the “common terminology criteria for adverse events” (CTCAE) version 5.0. Hematologic toxicity includes febrile neutropenia, neutropenic infection, grade 4 neutropenia >7 days, grade ≥3 thrombocytopenia for >7 days, grade ≥3 thrombocytopenia with clinically significant bleeding, grade 4 thrombocytopenia, and grade ≥3 anemia >7 days.
In the current study, 6 patients were treated in a safety run-in phase with an induction regimen consisting of a 3,000 mg loading dose followed by 2,000 mg weekly for 3 weeks. […] Enrollment continued under Induction Regimen 2 consisting of 3,000 mg once weekly for 4 weeks. The next 6 patients enrolled were treated with Induction Regimen 2.
Upon review, the next 6 patients enrolled and initiated treatment with Induction Regimen 2.
Upon review, all subsequently enrolled patients treated under Protocol Version 2.0 initiated treatment with Induction Regimen 2.

[7] = system: xenograft tumors generated from OVCAR8 cells; conditions: Sheng Q, et al., Cancer Cell 2010; cited from earlier work
[8] = cited from earlier work
[9] = 5 mg or 10 mg twice weekly seribantumab

B1: seribantumab: anti-ERBB3 (HER3) fully human monoclonal antibody; heavy and light chains SEQ ID NOs: 12 and 13 (antibody)
heavy: EVQLLESGGGLVQPGGSLRLSCAASGFTFSHYVMAWVRQAPGKGLEWVSSISSSGGWTLYADSVKGRFTISRDNSKNTLYLQMNSLRAEDTAVYYCTRGLKMATIFDYWGQGTLVTVSSASTKGPSVFPLAPCSRSTSESTAALGCLVKDYFPEPVTVSWNSGALTSGVHTFPAVLQSSGLYSLSSVVTVPSSNFGTQTYTCNVDHKPSNTKVDKTVERKCCVECPPCPAPPVAGPSVFLFPPKPKDTLMISRTPEVTCVVVDVSHEDPEVQFNWYVDGVEVHNAKTKPREEQFNSTFRVVSVLTVVHQDWLNGKEYKCKVSNKGLPAPIEKTISKTKGQPREPQVYTLPPSREEMTKNQVSLTCLVKGFYPSDIAVEWESNGQPENNYKTTPPMLDSDGSFFLYSKLTVDKSRWQQGNVFSCSVMHEALHNHYTQKSLSLSPGK
light: QSALTQPASVSGSPGQSITISCTGTSSDVGSYNVVSWYQQHPGKAPKLIIYEVSQRPSGVSNRFSGSKSGNTASLTISGLQTEDEADYYCCSYAGSSIFVIFGGGTKVTVLGQPKAAPSVTLFPPSSEELQANKATLVCLVSDFYPGAVTVAWKADGSPVKVGVETTKPSKQSNNKYAASSYLSLTPEQWKSHRSYSCRVTHEGSTVEKTVAPAECS
HER3 phosphorylation [1]: completely inhibited | phosphorylation of AKT, p70S6K, and STAT3 [1]: almost completely inhibited | phosphorylation of EGFR, HER2, HER3, HER4, AKT, and STAT3 [2]: almost complete inhibition | phosphorylation of ERK1/2 [2]: less sensitive | EGFR phosphorylation [3]: little effect | phosphorylation of HER2, HER3, and downstream effectors [3]: inhibited phosphorylation | BIM expression in tumors ([4]; 0.75 and 1 mg seribantumab, by 2 hours): higher levels of BIM than vehicle-treated tumors | phosphorylation of HER2, HER3, AKT, and ERK1/2 in tumors ([4]; all doses of seribantumab (0.6, 0.75, 1 mg), single administration, 2-hour timepoint): reduced phosphorylation | BIM expression in tumors ([4]; all doses of seribantumab, 168-hour timepoint): Elevated BIM was present | BIM expression in tumors ([4]; all doses of seribantumab, after 24 hours): Induction of BIM expression was clearly seen | HER2 phosphorylation in tumors ([4]; seribantumab higher doses, 168 hours): remained inhibited even after 168 hours | tumor growth [5, 9]: Tumor growth inhibition was observed | tumor shrinkage [5, 9]: up to 55% | tumor shrinkage, range [5, 9]: 23-77% | proteins in residual tumors by Western blotting ([5]; seribantumab-treated tumors, end of study (day 31)): Loss of phosphorylated and total EGFR, HER2 and HER3, cyclin D1 | efficacy compared with afatinib ([5]; two doses of seribantumab vs afatinib 5 mg/kg QD): more effective than afatinib | TEAEs [6]: Grade 1 diarrhea, nausea, fatigue, rash and pruritis | growth of xenograft tumors [7]: block growth of xenograft tumors | maximum tolerated dose ([8]; 43 advanced solid tumor patients): not reached | treatment-emergent adverse events having >20% incidence ([8]; 43 patients, all grades regardless of relationship): fatigue, nausea, diarrhea, vomiting, decreased appetite, hyperglycemia, hypokalemia, and rash | hypomagnesemia ([8]; 43 patients): Grade 1 | most commonly reported adverse events ([8]; 43 patients): Grade 1 or 2 rash, nausea, diarrhea and fatigue

— patent US20220288204A1, “DOSAGE AND ADMINISTRATION OF ANTI-ERBB3 (HER3) MONOCLONAL ANTIBODIES TO TREAT TUMORS ASSOCIATED WITH NEUREGULIN 1 (NRG1) GENE FUSIONS” (ELEVATION ONCOLOGY, INC., priority 2021, published 2022)
